Measurements as given in patent US8409836B2, “Treatment of cellulosic material and enzymes useful therein” (Roal Oy, priority 2005, dated 2013).

B1: At EG_40: endoglucanase of Acremonium thermophilum ALKO4245, gene At cel45A, amino acid SEQ ID NO: 12 (protein)
chain: MRSSPFLRAALAAALPLSAHALDGKSTRYWDCCKPSCGWPGKASVNQPVFSCSADWQRISDFNAKSGCDGGSAYSCADQTPWAVNDNFSYGFAATAIAGGSESSWCCACYALTFNSGPVAGKTMVVQSTSTGGDLGSNQFDLAIPGGGVGIFNGCASQFGGLPGAQYGGISDRSQCSSFPAPLQPGCQWRFDWFQNADNPTFTFQRVQCPSELTSRTGCKRDDDASYPVFNPPSGGSPSTTSTTTSSPSGPTGNPPGGGGCTAQKWAQCGGTGFTGCTTCVSGTTCQVQNQWYSQCL
B2: At EG_40_like: endoglucanase of Acremonium thermophilum ALKO4245, gene At cel45B, amino acid SEQ ID NO: 14 (protein)
chain: MRLPLPTLLALLPYYLEVSAQGASGTGTTTRYWDCCKPSCAWPLKGNSPSPVQTCDKNDRPLNDGGNTKSGCDNGGGAFMCSSQSPWAVNETTSYGWAAVRIAGSTESAWCCACYELTFTSGPVSGKKLIVQATNTGGDLGSNHFDLAIPGGGVGQSNACTNQYGAPPNGWGDRYGGVHSRSDCDSFPAALKAGCYWRFDWFQGADNPSVSFKQVACPAAITAKSGCTRQNDAINETPTGPSTVPTYTASG
B3: Ct βG_76: beta-glucosidase of Chaetomium thermophilum ALKO4261, gene Ct cel3A, amino acid SEQ ID NO: 26 (protein)
chain: MALHAFLLLASALLARGALSQPDNVRRAAPTGTAAWDAAHSQAAAAVSRLSQQDKINIVTGVGWGKGPCVGNTNPVYSINYPQLCLQDGPLGIRSATSVTAFTPGIQAASTWDVELIRQRGVYLGQEARGTGVHVLLGPVAGALGKIPHGGRNWEAFGSDPYLAGIAMSETIEGIQSEGVQACAKHYIANEQELNRETMSSNVDDRTMHELYLWPFADAVHSNVASVMCSYNKLNGTWLCENDRAQNQLLKRELGFRGYIVSDWNAQHTTVGSANSGMDMTMPGSDFNGWNVLWGPQLNNAVNSGQVSQSRLNDMVQRILAAWYLLGQNSGYPSINLRANVQANHKENVRAVARDGIVLLKNDGILPLQRPNKIALVGSAAVVNPRGMNACVDRGCNEGALGMGWGSGTVEYPYFVAPYDALRERAQRDGTQISLHASDNTNGVNNAVQGADAAFVFITADSGEGYITVEGHAGDRNHLDPWHNGNQLVQAVAQANKNVIVVVHSVGPVILETILNTPGVRAVVWAGLPSQESGNALVDVLYGLVSPSGKLVYTIAKSPSDYPTSIVRGDDNFREGLFIDYRHFDNARIEPRFEFGFGLSYTNFSYSNLGISSSATAGPATGPTVPGGPADLWNYVATVTATVTNTGGVEGAEVAQLYISLPSSAPASPPKQLRGFVKLKLAPGQSGTATFRLRKRDLAYWDVGRQNWVVPSGRFGVLVGASSRDIRLQGEIVV

What was measured:
Format in all cases: biochemical
[1] = Endoglucanase activity on carboxymethyl cellulose; conditions: purified endoglucanase, 50° C., procedure of IUPAC 1987
Protocol: The specific activity of the preparations was determined using 4-methylumbelliferyl-β-D-lactoside (MUL), 4-methylumbelliferyl-β-D-cellobioside (MUG2) or 4-methylumbelliferyl-β-D-cellotrioside (MUG3) as substrate (van Tilbeurgh et al., 1988) in 0.05 M sodium citrate buffer pH 5 at 50° C. for 10 min. Endoglucanase and xylanase activities were determined by standard procedures (according to IUPAC, 1987) using carboxymethyl cellulose (CMC) and birch glucuronoxylan (Bailey et al., 1992) as substrates. Specific activity against Avicel was calculated on the basis of reducing sugars formed in a 24 h reaction at 50° C., pH 5.0, with 1% substrate and 0.25 μM enzyme dosage. The protein content of the purified enzyme preparations was measured according to Lowry et al., 1951. To characterize the end products of hydrolysis, soluble sugars liberated in 24 h hydrolysis experiment, as described above, were analysed by HPLC (Dionex). Purified cellobiohydrolase I (CBHI/Cel7A) of Trichoderma reesei was used as a reference.
(§1) Acremonium thermophilum ALKO4245 was grown as described in Example 1. The culture supernatant was incubated at 70° C. for 24 hours after which it was concentrated by ultrafiltration. The pure endoglucanase was obtained by sequential purification with hydrophobic interaction and cation exchange chromatography followed by gel filtration. The endoglucanase activity of the fractions collected during purification was determined using carboxymethyl cellulose (CMC) as substrate (procedure of IUPAC 1987). Protein content was measured by BioRad Assay Kit (Bio-Rad Laboratories) using bovine serum albumine as standard.
as §1, with “Thermoascus aurantiacus ALKO4242 was” for “Acremonium thermophilum ALKO4245 was”, “1.” for “1. The culture supernatant was incubated at 70° C. for 24 hours after which it was concentrated by ultrafiltration.”, “and anion” for “and cation”

[2] = Hydrolysis with endoglucanase preparations, spruce; conditions: 48 h, 45° C., pH 5.0
Protocol: (§2) The preparations containing the endoglucanases were compared in hydrolysis studies mixed with the purified CBH/Cel7 and CBH/Cel6 enzymes on several pre-treated substrates. Culture filtrates of T. reesei, containing different cloned endoglucanase enzymes were obtained as described in Example 19. The enzymes were enriched by removing thermolabile proteins from the mixtures by a heat treatment (60° C., 2 h, pH 5) and the supernatant was used for the hydrolysis studies. In addition, pure T. reesei cellulases (purified as described by Suurnäkki et al., 2000) were used in the enzyme mixtures. The endoglucanases used in the experiment were:
Washed steam pre-treated spruce fibre (impregnation with 3% SO2 for 20 min, followed by steam pre-treatment at 215° C. for 5 min), dry matter 25.9% (SPRUCE).
(§3) The endoglucanases to be studied (dosage 840 nkat/g dry matter, based on endoglucanase activity against HEC according to IUPAC, 1987) were used either with cellobiohydrolases of T. reesei (CBHI/Cel7A, 8.1 mg/g d.m. and CBHII/Cel6A, 2.0 mg/g d.m.) or with Thermoascus aurantiacus Cel7A with genetically attached CBD of T. reesei (10.1 mg/g d.m.). Purified (Suurnäkki et al., 2000) EGI (Cel7B) and EGII (Cel5A) of T. reesei were also included in the experiments for comparison. All mixtures were supplemented with additional β-glucosidase from Novozym 188 (to make the total β-glucosidase dosage 560 nkat/g d.w., the relatively high dosage was used to compensate the differences in the background activities of the different EG preparations). Triplicate tubes were incubated in mixing at 45° C. for 48 h and reference samples with inactivated enzymes and corresponding substrates were prepared. The release of hydrolysis products was measured as reducing sugars with DNS method using glucose as standard (Table 31).

[3] = Hydrolysis with endoglucanase preparations, corn stover; conditions: 48 h, 45° C., pH 5.0
Protocol: as §2
Steam exploded corn stover fibre (steam pre-treatment at 210° C. for 5 min), dry matter 31.0% (SECS).
as §3

[4] = pH optimum of heterologously produced endoglucanases; conditions: McIlvaine's buffer; for pH optimum: pH range 4.0-8.0, CMC, 10 min, 50° C.
Protocol: (§4) The pH optimum of the heterologously produced endoglucanases was determined in the universal McIlvaine's buffer within a pH range of 4.0-8.0 using carboxymethylcellulose as substrate. As shown in FIG. 6 A the broadest pH range (4.5-6.0) is that of the Acremonium EG—40/Cel45A protein, the optimum being at pH 5.5. The pH optima for the other heterologously produced endoglucanases are pH 5.0-5.5 and 6.0 for Acremonium EG—40_like/Cel45B and Thermoascus EG—28/Cel5A, respectively. The optimal temperature for enzymatic activity of these endoglucanases was determined at the temperature range of 50-85° C. as described above. The highest activity of the enzymes was determined to be at 75° C., 60° C., and 75° C. for the Acremonium EG—40/Cel45A, EG—40 like/Cel45B, and Thermoascus EG—28/Cel5A, respectively (FIG. 6 B).

[5] = Temperature optimum of heterologously produced endoglucanases; conditions: temperature range 50-85° C., CMC
Protocol: as §4

[6] = pH optimum of heterologously produced β-glucosidases; conditions: McIlvaine's buffer, pH range 3.0-8.0, 4-nitrophenyl-β-D-glucopyranoside
Protocol: (§5) The pH optimum of the heterologously produced β-glucosidases was determined in the universal McIlvaine's buffer within a pH range of 3.0-8.0 using 4-nitrophenyl-β-D-glucopyranoside as substrate. The pH optima for the Acremonium βG—101, Chaetomium βG—76, and Thermoascus βG—81 are pH 4.5, 5.5, and 4.5, respectively (FIG. 7 A). The optimal temperature for enzymatic activity of these β-glucosidases was determined at the temperature range of 50-85° C. as described above. The highest activity of the enzymes was determined to be at 70° C., 65° C., and 75° C. for the Acremonium βG—101/Cel3A, Chaetomium βG—76/Cel3A, and Thermoascus βG—81/Cel3A, respectively (FIG. 7 B).

[7] = Temperature optimum of heterologously produced β-glucosidases; conditions: temperature range 50-85° C., 60 min
Protocol: as §5

[8] = with CBHI and CBHII of T. reesei
[9] = with T. aurantiacus Cel7A + Tr CBD

Molecule | Specific activity on CMC [1] | Hydrolysis products as reducing sugars, SPRUCE [2, 8] | Hydrolysis products as reducing sugars, SPRUCE [2, 9] | Hydrolysis products as reducing sugars, SECS [3, 8] | Hydrolysis products as reducing sugars, SECS [3, 9] | pH range (broadest) ([4]; CMC) | pH optimum [4] | Temperature of highest activity [5] | pH optimum [6] | Temperature of highest activity [7]
B1 | 450 nkat/mg | 4.9 mg/mL | 4.8 mg/mL | 4.3 mg/mL | 4.0 mg/mL | 4.5-6.0 | 5.5 | 75 °C | – | –
B2 | – | 4.5 mg/mL | – | 4.8 mg/mL | – | – | 5.0-5.5 | 60 °C | – | –
B3 | – | – | – | – | – | – | – | – | 5.5 | 65 °C
